Experiment [1] addresses human CLDN18.2 on cells (human) (UniProt P56856). The experiment is described as follows: flow cytometry on SUN601 (SNU601) cells.
Experiment [2] shares this target. Nature of the experiment: flow cytometry on DAN-G18.2 cells.
For experiment [3] the target is unchanged. The experiment is described as follows: flow cytometry on CHO-GS-hCLDN18.2 cells.

Data on 1 molecule can be found in patent US20250009801A1.

B1: Hz69H9-2.1 PG Ab (antibody, human IgG1, kappa, V domains shown)
VH: QVQLVQSGAEVKKPGSSVKVSCKASGYSFSSYNIHWVRQAPGQGLEWMGYIAPFQGDARYNQKFKGRVTITADKSTSTAYMELSSLRSEDTAVYYCARLNRGNALDYWGQGTLVTVSS
VL: DIVMTQSPDSLAVSLGERATINCKSSQSLFQSGNQRNYLTWYQQKPGQPPKLLIYWASTRESGVPDRFSGSGSGTDFTLTISSLQAEDVAVYYCQNNYIYPLTFGGGTKVEIKR
In the case of B1, the EC50 in experiment [1] was found to be 261 nM; in experiment [2], 6.95 nM; in experiment [3], 8.21 nM.
